Data on two substances can be found in US20160310575A1.

Some targets named below: human GLP-R (human) (UniProt P43220); human GCG-R (human) (UniProt P47871); human GIP-R (human) (UniProt P48546).
What all share (assay): cell-based or functional assay

human GLP-R (human), sequence (P43220 24-463): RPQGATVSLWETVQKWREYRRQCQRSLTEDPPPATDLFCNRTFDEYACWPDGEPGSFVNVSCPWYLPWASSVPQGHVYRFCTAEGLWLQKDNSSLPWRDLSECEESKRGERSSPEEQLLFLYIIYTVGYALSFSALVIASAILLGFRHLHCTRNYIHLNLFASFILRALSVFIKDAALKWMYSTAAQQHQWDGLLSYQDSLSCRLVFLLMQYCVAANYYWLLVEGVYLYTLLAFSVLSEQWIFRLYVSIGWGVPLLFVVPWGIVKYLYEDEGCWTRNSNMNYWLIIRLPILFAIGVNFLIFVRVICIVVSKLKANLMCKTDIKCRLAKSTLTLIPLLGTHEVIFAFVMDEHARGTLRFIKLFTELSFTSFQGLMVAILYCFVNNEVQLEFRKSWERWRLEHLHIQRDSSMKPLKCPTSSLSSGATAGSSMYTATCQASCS
Dulaglutide (Fc fusion), sequence (chain): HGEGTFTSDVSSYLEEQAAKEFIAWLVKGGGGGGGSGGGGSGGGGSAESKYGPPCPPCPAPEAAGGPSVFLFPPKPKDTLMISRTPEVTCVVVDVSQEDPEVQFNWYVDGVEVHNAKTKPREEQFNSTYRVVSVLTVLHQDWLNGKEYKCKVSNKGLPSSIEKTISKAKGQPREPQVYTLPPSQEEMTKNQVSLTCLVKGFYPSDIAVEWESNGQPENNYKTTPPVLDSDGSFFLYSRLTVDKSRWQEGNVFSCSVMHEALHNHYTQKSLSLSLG
human GIP-R (human), sequence (P48546 22-466): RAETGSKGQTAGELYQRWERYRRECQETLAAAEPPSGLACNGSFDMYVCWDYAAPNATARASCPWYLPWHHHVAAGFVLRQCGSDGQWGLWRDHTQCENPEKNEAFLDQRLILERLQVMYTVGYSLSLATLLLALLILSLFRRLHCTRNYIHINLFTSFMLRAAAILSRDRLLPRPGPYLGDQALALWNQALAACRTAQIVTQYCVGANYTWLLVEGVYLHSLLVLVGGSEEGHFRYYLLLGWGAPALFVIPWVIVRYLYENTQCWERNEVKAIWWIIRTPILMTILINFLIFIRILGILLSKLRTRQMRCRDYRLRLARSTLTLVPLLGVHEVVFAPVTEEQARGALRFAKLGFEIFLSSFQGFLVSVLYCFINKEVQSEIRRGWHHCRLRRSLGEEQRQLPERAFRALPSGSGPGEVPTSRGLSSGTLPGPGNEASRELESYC
human GCG-R (human), sequence (P47871 26-477): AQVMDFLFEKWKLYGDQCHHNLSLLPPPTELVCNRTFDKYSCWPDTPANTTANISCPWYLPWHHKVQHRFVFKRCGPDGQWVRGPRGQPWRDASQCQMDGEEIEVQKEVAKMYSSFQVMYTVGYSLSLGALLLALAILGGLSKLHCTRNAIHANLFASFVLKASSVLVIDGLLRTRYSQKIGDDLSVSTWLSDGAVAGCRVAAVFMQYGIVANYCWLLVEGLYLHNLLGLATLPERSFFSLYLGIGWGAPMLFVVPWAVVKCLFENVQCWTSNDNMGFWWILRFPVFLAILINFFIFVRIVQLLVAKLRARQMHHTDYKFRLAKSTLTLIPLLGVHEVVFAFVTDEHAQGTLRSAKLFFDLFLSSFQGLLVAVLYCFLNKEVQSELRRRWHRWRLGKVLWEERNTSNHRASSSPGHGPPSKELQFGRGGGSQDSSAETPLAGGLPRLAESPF

Consider Dulaglutide (Fc fusion), for which, in the assay with human GLP-R (human), the % max GLP-1, human GLP-R (cAMP assay) stood at 98.2% and the EC50 [nM], human GLP-R (cAMP assay) came out at 0.129 nM. For the same substance, in the assay with human GCG-R (human), the % max GCG, human GCG-R (cAMP assay) came to 1.6% and the EC50 [nM], human GCG-R (cAMP assay) was above 600 nM. Also, in the assay with human GIP-R (human), the % max GIP, human GIP-R (cAMP assay) is 13.8% and the EC50 [nM], human GIP-R (cAMP assay) was above 600 nM.
The substance G3Fc only (from UniProt P0DOX5 223-449) displayed an EC50 [nM], GLP1-R (cAMP assay) with human GLP-R (human) above 600 nM. In addition, the EC50 [nM], GIP-R (cAMP assay) in the assay with human GIP-R (human) was above 600 nM.
